Measurements taken from patent US20150376674.

Biological target: tetranectin-apolipoprotein A-I fusion polypeptide precursor polypeptide

B1: IgA-protease protein from Neisseria gonorrhoeae (protein)
chain: ALVRDDVDYQIFRDFAENKGKFFVGATDLSVKNKRGQNIGNALSNVPMIDFSVADVNKRIATVVDPQYAVSVKHAKAEVHTFYYGQYNGHNDVADKENEYRVVEQNNYEPHKAWGASNLGRLEDYNMARFNKFVTEVAPIAPTDAGGGLDTYKDKNRFSSFVRIGAGRQLVYEKGVYHQEGNEKGYDLRDLSQAYRYAIAGTPYKDINIDQTMNTEGLIGFGNHNKQYSAEELKQALSQDALTNYGVLGDSGSPLFAFDKQKNQWVFLGTYDYWAGYGKKSWQEWNIYKKEFADKIKQHDNAGTVKGNGEHHWKTTGTNSHIGSTAVRLANNEGDANNGQNVTFEDNGTLVLNQNINQGAGGLFFKGDYTVKGANNDITWLGAGIDVADGKKVVWQVKNPNGDRLAKIGKGTLEINGTGVNQGQLKVGDGTVILNQKADADKKVQAFSQVGIVSGRGTLVLNSSNQINPDNLYFGFRGGRLDANGNDLTFEHIRNVDEGARIVNHNTDHASTITLTGKSLITNPNSLSVHSIQNDYDEDDYSYYYRPRRPIPQGKDLYYKNYRYYALKSGGRLNAPMPENGVAENNDWIFMGYTQEEARKNAMNHKNNRRIGDFGGFFDEENGKGHNGALNLNFNGKSAQKRFLLTGGANLNGKISVTQGNVLLSGRPTPHARDFVNKSSARKDAHFSKNNEVVFEDDWINRTFKAAEIAVNQSASFSSGRNVSDITANITATDNAKVNLGYKNGDEVCVRSDYTGYVTCNTGNLSDKALNSFDATRINGNVNLNQNAALVLGKAALWGKIQGQGNSRVSLNQHSKWHLTGDSQVHNLSLADSHIHLNNASDAQSANKYHTIKINHLSGNGHFHYLTDLAKNLGDKVLVKESASGHYQLHVQNKTGEPNQEGLDLFDASSVQDRSRLFVSLANHYVDLGALRYTIKTENGITRLYNPYAGNGRPVKPAP
Cleavage activity: Cleavage activity was in the expected range.
